Molecular target: the molecule itself
Assay: differential scanning calorimetry

B1: PSD95-PDZ3 wild type (third PDZ domain of postsynaptic density-95 protein) (domain or fragment)
chain: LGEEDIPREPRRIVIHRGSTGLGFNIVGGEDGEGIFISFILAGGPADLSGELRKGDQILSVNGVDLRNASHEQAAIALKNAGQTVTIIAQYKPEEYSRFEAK
  stoichiometry N: 6
